According to article PMC7247549, “Biochemical Convergence of Mitochondrial Hsp70 System Specialized in Iron–Sulfur Cluster Biogenesis” (International Journal of Molecular Sciences, 2020):

Assays:
[1] = biological target: Isu1-GST fusion protein (S. cerevisiae) (UniProt Q03020); experiment: pull-down; Isu1-GST (30 μM) incubated with increasing Ssq1, 4 mM ADP, PD buffer (40 mM HEPES-KOH pH 7.5, 100 mM KCl, 1 mM DTT, 10 mM MgCl2, 5% glycerol), 15 min at 25 °C, then glutathione resin; SDS-PAGE, Coomassie, densitometry, Michaelis-Menten hyperbolic fit
[2] = substrate: Nc1ncnc2c1ncn2[C@@H]1O[C@H](COP(=O)(O)OP(=O)(O)OP(=O)(O)O)[C@@H](O)[C@H]1O; experiment: steady-state ATPase, PK/LDH NADH-coupled assay; type: biochemical, Saccharomyces cerevisiae; settings: 2.5 μM Ssq1 with 2.5 μM nucleotide exchange factor Mge1, no Isu1 or Hsc20 mentioned, pH 7.5, 150 mM KCl, 20 mM Mg acetate, 23 °C
purified protein = substrate: Nc1ncnc2c1ncn2[C@@H]1O[C@H](COP(=O)(O)OP(=O)(O)OP(=O)(O)O)[C@@H](O)[C@H]1O; experiment: purified protein; settings: 1 μM HscA, no exchange factor, no IscU or HscB mentioned, pH 7.5, 150 mM KCl, 20 mM Mg acetate, 23 °C
Ssq1 (S. cerevisiae) [3] = biological target: T1, Ssq1 (S. cerevisiae); settings: scale: fold
T1 sequence (Q05931 whole entry, looked up): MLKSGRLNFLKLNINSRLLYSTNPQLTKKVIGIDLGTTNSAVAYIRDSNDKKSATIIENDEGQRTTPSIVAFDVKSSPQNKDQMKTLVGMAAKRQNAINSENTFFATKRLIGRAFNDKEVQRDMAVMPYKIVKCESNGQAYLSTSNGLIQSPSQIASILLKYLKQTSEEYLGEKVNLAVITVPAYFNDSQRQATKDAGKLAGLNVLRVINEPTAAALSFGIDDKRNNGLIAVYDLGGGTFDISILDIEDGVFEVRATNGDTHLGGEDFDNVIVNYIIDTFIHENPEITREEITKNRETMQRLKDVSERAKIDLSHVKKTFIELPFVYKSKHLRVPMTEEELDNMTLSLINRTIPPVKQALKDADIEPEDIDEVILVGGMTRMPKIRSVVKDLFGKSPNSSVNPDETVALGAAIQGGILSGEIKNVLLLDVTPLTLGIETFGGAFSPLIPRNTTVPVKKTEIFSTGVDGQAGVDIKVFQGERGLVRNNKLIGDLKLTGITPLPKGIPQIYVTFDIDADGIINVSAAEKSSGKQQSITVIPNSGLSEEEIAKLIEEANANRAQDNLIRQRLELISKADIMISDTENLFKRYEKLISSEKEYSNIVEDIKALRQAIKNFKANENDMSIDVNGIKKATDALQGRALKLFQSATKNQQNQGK

Ssq1 (S. cerevisiae) [4] = biological target: T1, Ssq1 (S. cerevisiae)

Sequence of Isu1-GST fusion protein (S. cerevisiae) (Q03020 28-165): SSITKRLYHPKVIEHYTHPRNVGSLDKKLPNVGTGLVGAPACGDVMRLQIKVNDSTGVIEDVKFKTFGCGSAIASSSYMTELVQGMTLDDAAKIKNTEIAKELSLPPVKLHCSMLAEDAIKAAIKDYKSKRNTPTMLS

Molecule: Ssq1 (natural protein)
- Km (with ADP) [1]: 2.18 µM

B1: Ssq1 (Saccharomyces cerevisiae S288C) (protein)
chain: PQLTKKVIGIDLGTTNSAVAYIRDSNDKKSATIIENDEGQRTTPSIVAFDVKSSPQNKDQMKTLVGMAAKRQNAINSENTFFATKRLIGRAFNDKEVQRDMAVMPYKIVKCESNGQAYLSTSNGLIQSPSQIASILLKYLKQTSEEYLGEKVNLAVITVPAYFNDSQRQATKDAGKLAGLNVLRVINEPTAAALSFGIDDKRNNGLIAVYDLGGGTFDISILDIEDGVFEVRATNGDTHLGGEDFDNVIVNYIIDTFIHENPEITREEITKNRETMQRLKDVSERAKIDLSHVKKTFIELPFVYKSKHLRVPMTEEELDNMTLSLINRTIPPVKQALKDADIEPEDIDEVILVGGMTRMPKIRSVVKDLFGKSPNSSVNPDETVALGAAIQGGILSGEIKNVLLLDVTPLTLGIETFGGAFSPLIPRNTTVPVKKTEIFSTGVDGQAGVDIKVFQGERGLVRNNKLIGDLKLTGITPLPKGIPQIYVTFDIDADGIINVSAAEKSSGKQQSITVIPNSGLSEEEIAKLIEEANANRAQDNLIRQRLELISKADIMISDTENLFKRYEKLISSEKEYSNIVEDIKALRQAIKNFKANENDMSIDVNGIKKATDALQGRALKLFQSATKNQQNQGK
- Km [2]: 25 µM

B2: HscA (Escherichia coli K-12) (protein)
chain: MALLQISEPGLSAAPHQRRLAAGIDLGTTNSLVATVRSGQAETLADHEGRHLLPSVVHYQQQGHSVGYDARTNAALDTANTISSVKRLMGRSLADIQQRYPHLPYQFQASENGLPMIETAAGLLNPVRVSADILKALAARATEALAGELDGVVITVPAYFDDAQRQGTKDAARLAGLHVLRLLNEPTAAAIAYGLDSGQEGVIAVYDLGGGTFDISILRLSRGVFEVLATGGDSALGGDDFDHLLADYIREQAGIPDRSDNRVQRELLDAAIAAKIALSDADSVTVNVAGWQGEISREQFNELIAPLVKRTLLACRRALKDAGVEADEVLEVVMVGGSTRVPLVRERVGEFFGRPPLTSIDPDKVVAIGAAIQADILVGNKPDSEMLLLDVIPLSLGLETMGGLVEKVIPRNTTIPVARAQDFTTFKDGQTAMSIHVMQGERELVQDCRSLARFALRGIPALPAGGAHIRVTFQVDADGLLSVTAMEKSTGVEASIQVKPSYGLTDSEIASMIKDSMSYAEQDVKARMLAEQKVEAARVLESLHGALAADAALLSAAERQVIDDAAAHLSEVAQGDDVDAIEQAIKNVDKQTQDFAARRMDQSVRRALKGHSVDEV
- Km (purified protein): 28 µM

B3: Hsc20 (natural protein)
chain: TSTFYELFPKTFPKKLPIWTIDQSRLRKEYRQLQAQHHPDMAQQGSEQSSTLNQAYHTLKDPLRRSQYMLKLLRNIDLTQEQTSNEVTTSDPQLLLKVLDIHDELSQMDDEAGVKLLEKQNKERIQDIEAQLGQCYNDKDYAAAVKLTVELKYWYNLAKAFKDWAPGKQLEMNH
- apparent Km of Hsc20 (0.0025-0.25 μM) for stimulating the pull-down of Ssq1 with Isu1-GST in ATP, compared with that of HscB (Ssq1 (S. cerevisiae) [3]): 4
- apparent Km of Hsc20 for stimulation of Ssq1 ATPase activity (radioactive assay, 10 μM Isu1, 0.5 μM Mge1), compared with that of HscB for HscA (fold (affinity, against HscA for HscB)) (Ssq1 (S. cerevisiae) [4]): 8
